In data set [1] the target is T1, rA3G-CD1 (loop-8 mutant) (Macaca mulatta (rhesus macaque), UniProt M1GSK9 1-138+=AEAG+147-196, internal_change). As to the kind of experiment: EMSA; ITC: 100 mM NaCl, 50 mM HEPES pH 7.5, 25 C; EMSA: 60 mM HEPES pH 7.5, 100 mM NaCl, on ice 10 min, native PAGE. The note with it: protein: recombinant, tags: GST tag removed with PreScission (pGEX-6P-1), chain copies: 2. For orientation: A gel shift assay detects complexes by their altered migration in electrophoresis.

The target in another data set is rA3G-CD1 Y124A (Macaca mulatta (rhesus macaque), UniProt M1GSK9 1-138+=AEAG+147-196, Y124A;internal_change). As to the kind of experiment: ITC; ITC: 100 mM NaCl, 50 mM HEPES pH 7.5, 25 C; EMSA: 60 mM HEPES pH 7.5, 100 mM NaCl, on ice 10 min, native PAGE. The following applies: protein: recombinant; tags: GST tag removed with PreScission (pGEX-6P-1). For orientation: In ITC the heat of successive injections is recorded.

Another data set addresses rA3G-CD1 FWKL mutant (Macaca mulatta (rhesus macaque), UniProt M1GSK9 1-138+=AEAG+147-196, F126Y;W127S;K180S;L184S;internal_change). The data set is described as above. The note with it: protein: recombinant; tags: GST tag removed with PreScission (pGEX-6P-1).
The target in data set [2] is T1, rA3G-CD1 (loop-8 mutant). As to the kind of experiment: ITC; n=1.47; ITC: 100 mM NaCl, 50 mM HEPES pH 7.5, 25 C; EMSA: 60 mM HEPES pH 7.5, 100 mM NaCl, on ice 10 min, native PAGE. The following applies: protein: recombinant; tags: GST tag removed with PreScission (pGEX-6P-1); chain copies: 2.
In data set [3] the target is T1, rA3G-CD1 (loop-8 mutant). As to the kind of experiment: ITC; n=0.83; ITC: 100 mM NaCl, 50 mM HEPES pH 7.5, 25 C; EMSA: 60 mM HEPES pH 7.5, 100 mM NaCl, on ice 10 min, native PAGE. The following applies: protein: recombinant; tags: GST tag removed with PreScission (pGEX-6P-1); chain copies: 2.

T1 sequence (M1GSK9 entry or part of it | mutant): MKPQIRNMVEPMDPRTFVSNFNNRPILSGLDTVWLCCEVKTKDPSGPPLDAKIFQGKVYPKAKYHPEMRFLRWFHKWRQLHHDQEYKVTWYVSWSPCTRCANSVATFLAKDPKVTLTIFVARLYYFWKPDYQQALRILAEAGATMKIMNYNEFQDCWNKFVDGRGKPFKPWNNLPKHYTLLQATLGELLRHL
Chain of rA3G-CD1 FWKL mutant (M1GSK9 entry or part of it F126Y;W127S;K180S;L184S/| mutant): as the sequence (M1GSK9 entry or part of it | mutant) above, with F126Y, W127S, K176S, L180S counted along it
Chain of rA3G-CD1 Y124A (M1GSK9 entry or part of it Y124A/| Y124A Y124A): as the sequence (M1GSK9 entry or part of it | mutant) above, with Y124A counted along it

Consider ATTATTATTATTTATCCCTATTTATATTTATTGTTATTGTTATTGTTATA (ssDNA) [50 nt ssDNA], for which the binding result in the data set with rA3G-CD1 (loop-8 mutant) [1] (label: 5'-FAM (EMSA)) was “binds”.

Turning to TTTTTTTTTT (ssDNA) [10 nt poly-dT ssDNA], the binding result with rA3G-CD1 Y124A and with rA3G-CD1 FWKL mutant was “no binding” throughout. For the same molecule, in the data set with rA3G-CD1 (loop-8 mutant) [2], the Kd (commonly the constant that tells how readily two partners part at equilibrium) was 1.57 ± 0.31 µM.

As for AUUAUUAUUAUUUAUCCCUAUUUAUAUUUAUUGUUAUUGUUAUUGUUAUA (ssRNA) [50 nt RNA], the binding result in the data set with rA3G-CD1 (loop-8 mutant) [1] (label: 5'-FAM) is “binds”.

As for UAUUCAUUAU (ssRNA) [10 nt RNA], the binding result with rA3G-CD1 Y124A and with rA3G-CD1 FWKL mutant was “no binding” each time. For the same molecule, the Kd with rA3G-CD1 (loop-8 mutant) [3] amounted to 1.49 ± 0.18 µM.

For the origin of these results see PMC4974639, “Crystal structures of APOBEC3G N-domain alone and its complex with DNA”.
